The values below are quoted from earlier work in PMC3629029.

This data set has as its target calreticulin (Homo sapiens) (UniProt P27797). As to the kind of experiment: SPR. (In general: SPR reads the build-up and loss of mass on a sensor chip optically.)
Sequence of UniProt P27797 (P27797 18-417): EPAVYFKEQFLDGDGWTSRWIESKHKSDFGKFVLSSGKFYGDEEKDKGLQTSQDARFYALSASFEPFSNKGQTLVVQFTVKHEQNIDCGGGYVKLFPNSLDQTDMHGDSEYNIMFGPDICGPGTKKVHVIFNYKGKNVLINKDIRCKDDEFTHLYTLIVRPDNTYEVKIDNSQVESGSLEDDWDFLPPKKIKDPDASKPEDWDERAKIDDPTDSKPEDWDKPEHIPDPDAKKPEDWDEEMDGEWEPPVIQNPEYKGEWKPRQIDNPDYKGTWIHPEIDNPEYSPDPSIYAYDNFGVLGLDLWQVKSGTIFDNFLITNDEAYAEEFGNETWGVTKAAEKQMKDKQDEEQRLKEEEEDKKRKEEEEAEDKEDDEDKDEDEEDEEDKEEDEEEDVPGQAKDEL

One may read the Kd as the free concentration of one partner at which half of the binding sites on the other are occupied at equilibrium, for simple one-to-one binding. For PDIR (from UniProt Q14554), the Kd was 16 µM.
